Measurements: a protein production outcome set (Wang et al. 2014)

Assay: label from the status in PepcDB records

For “MVGRRVSPALTKDDAHSYIIAVKETFHDEPTKYQEFIKLLNGVCDHRVDKYSVIARVEELMKDHQDLLLGFSVFLPPVSVEDFINKLKSKFVHLQTRFQSLDTHVVGAIRGLMKMFKEGKMSVKEVQEEVIDVLFYHEDLIEDFLRFFTKNPVSTASLLLQL”, the protein production was “failed”.

In the case of “MSPPPAVVTESADGQPEQPPVTAIAEELEKKLQTDEPIVEDVKDDEDDDDDDEEEEDDDAQGVSGSSKQSRSEKKSRKAMLKLGMKPVTGVSRVTIKRTKNVLFFISKPDVFKSPHSETYVIFGEAKIEDLSSQLQTQAAQQFRMPEIGATSQRAEASTATVEAQVEEDEEEIDETGVEARDIDLVMTQAGVSRSKAVKALKSHDGDIVSAIMELTT”, the protein production was “failed”.

In the case of “MTKPSRPDAPGDGRPRRLPGVARCRRDAAGHPPAHRLRWLQLLIWLVPMLAALVSIGLVAGQVRGHGPAITLGFQDGEGIEPGKTPVRYNDVDIGMVTAVRLSTDLSRVLVTVQLNQEAADFATHGTRFWIVRPRAGMSGASGLGTLLSGTYIGADSGGSHEPETQFTGLENPPVVSLRQQGARFVLRGPSLGSVETGSPVYYRHVEVGQVTGTALDKDGAGVTIDVFIEAPYHRYVGRDTQWRHASGLGLRLDAAGLRVNAESFQTMLLGGIAFQPSPGQPAGDAVPDGTVFGLQSGDLDAADGPDGKPSTVVMHFDQSLHGLSVGAAVDFRGVQLGEVTNVGVAFDPKTHTFVMPVTLNLYPDRLGQAFRASSEYGDAAAGKALLRTLVARGLRGQLRTGNLLTNQLYVALDMFPNAPPVQLDLNGTLIALPTIPNTLDDLQAQVADLAKTLDRVPLDQLGTHLGQRLDNARRLFALTDAQLAPQARATLAAARQAFDAAQAIAQSPLLRPADLSRVREQLGQTLRALDTLTDTVAQHPESLVWGPAVDTRTAQSP”, the protein production was “failed”.

In the case of “MAMWVFGYGSLIWKTGFPFDESLPGFIKGYRRVFHQGSTDHRGTPDFPGRTVTLEAAHEEHLEVREKQYDQKEYLDFFTDSNASEPAVAGVMVYIASPDKKSNNNYLGPAPLEDIAKQIVKAKGPSGPNRDYLFNLEEALAQLGFKDKHVTDLANQVRHILSESEELDIDATAATANNV”, the protein production was “failed”.

For “AIASSAIERKSLDPSEEPVDEVLQIPPSLLTCGGCQQNIGDRYFLKAIDQYWHEDCLSCDLCGCRLGEVGRRLYYKLGRKLCRRDYLRLFGQDGLCASCDKRIRAYEMTMRVKDKVYHLECFKCAACQKHFCVGDRYLLINSDIVCEQDIYEWTKINGMI”, the protein production was “failed”.

In the case of “MFKNLIWLKEVDSTQERLKEWNVSYGTALVADRQTKGRGRLGRKWLSQEGGLYFSFLLNPKEFENLLQLPLVLGLSVSEALEEITEIPFSLKWPNDVYFQEKKVSGVLCELSKDKLIVGIGINVNQREIPEEIKDRATTLYEITGKDWDRKEVLLKVLKRISENLKKFKEKSFKEFKGKIESKMLYLGEEVKLLGEGKITGKLVGLSEKGGALILTEEGIKEILSGEFSLRRS”, the protein production was “not failed”.

With “MTLGSQHSPLFALVQETLRKRILSGAYAQGERLVEGDLAEEMGVSRIPVREALRALAAAGLVRIEPRRGASVASLSPEHARDIVEVRATLEALNARLAAQRRNPQQVADMDRAIRDGAHACERGDTAALVEQNRHFHELLGGVSTNAVLQDLMRSLRDRTALLFARNSVTRAADILDEHAGILQAVTAGDADLASLLAARHVHNAAQWYFERPVDRKAVAADTD” the protein production was “failed”.

In the case of “MGIRVKRRQHQHLLESLVHSTAKQQGDFTKTAELATELLCQNLAVSLVSIWIFSADQGTQSLVAQFGSMALQDTYRPSLLHTVPRYLNELKNYRHIDAGNTLIDPRLTELVDSYFIPRQILSSLDVGIRINGHLEGVLCIERAQVTHHWHDSEIHLACQMADQLALTLATKHAYLEHHHHHH”, the protein production was “failed”.

With “MPIRRRTSGNDRKNIGPRMEVARVREPFSFGVPERRRFAMQFGYDMRPSFWQEVRSNSHLVIAAVGTAALLGVAAVALWLALPTSERQAAASQEQSIPSIPVKTMKIVPAGTTVAAATVPQPARKSDQVSPTVAVAKANIQALAANDPRWTEAQPKTASAAPDQAAAPSQAANQAEPAPNKPAVTAAFAPSATDTDAASELAKVAAPAPAAGSNPDGAKTAAIPEVQPQAPEQQPTASDDGSKARAKPPKVAAAGNGRILRPVTMRSGPKKNAAAIGTVPARTSVQVMICKQWCQIVYNGKTGWVYKSYIKTGG” the protein production was “failed”.

For “LEKNDLVYMQRAFELNDKVAKDIMIDRTQLVVIDITSTVKEALNVYLQERFSRLPVVADNDKDKVLGYVYNYDLTRQQQVDSSVRVDKLIRDISTTPETTPITQVLQQMIKKRTPIVVVVDEYGGTSGIITDKDIYEEL”, the protein production was “failed”.

With “MPVRTSQASQGNRGKGVGLGLALASAVAFGGSGVAAKPLIEAGLDPLHVVWLRVSGAALVMLPLAVRHRALLRRRPALLIGFGLLAVAGVQACYFAAISRIPVGVALLVEYLAPALVLGWVRFVQRRPVTRAAALGVVLAVGGLACVVEVWSGLGFDALGLLLALAAACCQVGYFVLSDQGSETGEDAPDPLGVIAFGLLIGALVLTVVARPWTMDWSVLGGRADMNGDSVPAALLLGWIVLIATVVAYVTGVLSVRRLSPQVAGVVACLEAVIATVLAWVLLGEHLSAPQIIGGAVVLVGAFIAQSSAPAKPSDGPVTGGGGAERQLSARGTAA” the protein production was “failed”.

For “MGEVFQKEAYAQELIDYYNQSTNDVLKRTASISENEKPRVLFLVYDQRKNSYWTPGGEFYQNNLITMAGGKTVSSDLPTGKAQINVEQAASWNPDVIITSAHTMEYPSTKVKEDVLTDEGWKEINAVKSGNVYAMPFDGESWDTLGSKYVLGLYWTAKTLEHHHHHH”, the protein production was “not failed”.

In the case of “PSARDILQQGLDRLGSPEDLASRIDSTLLSPRATEEDVRNLVREASDYGFRCAVLTPVYTVKISGLAEKLGVKLCSVIGFPLGQAPLEVKLVEAQTVLEAGATELDVVPHLSLGPEAVYREVSGIVKLAKSYGAVVKVILEAPLWDDKTLSLLVDSSRRAGADIVKTSTGVYTKGGDPVTVFRLASLAKPLGMGVKASGGIRSGIDAVLAVGAGADIIGTSSAVKVLESFKSLV”, the protein production was “not failed”.

For “MIASVASTTKDRLEIVKAFRNKEITILIATSILERGVTFPNVDVFVINSEHPNFTKSALIQMAGRVGRSPERPTGLVSFFHYGKSKAMCQAVREIKKMNQLGCFSLEHHHHHH”, the protein production was “failed”.

In the case of “MDLTIQHFIALAPLLITSLTVVVVMLAIAWRRNHSQTFLLSVAGLNLALLSIYPALKVAPLVVTPLLHIDNFACLYMAIILASTLACVTMAHAYLGDGKVGYPGNREELYLLILLAAAGGLVLVSAQHLAGLFIGLELLSVPVYGLVAYAFFNKRSLEGGIKYMVLSAAGSAFLLFGMALLYAEAGSLSFEGIGKAIAATGMPSPIATVGLGMMVVGLAFKLSLVPFHLWTPDVYEGAPAPVAAFLATASKVAVFAVLVRLFQISPAASSGVLHDVMAVIAVASILVGNLLALTQTNLKRLLGYSSIAHFGYLMIALVASKGMAVEAIGVYLATYVLTSLGSFGVITMMSSPYSGRDADAMFEYRGLFWRRPYLTAVMTLMMLSLAGIPLTAGFIGKFYIIATGVESQLWWLIGALVIGSAIGVFYYLRVMVTMYLVDNKLPRHDAAINWAQRTGGVMLLAVAILTFVLGVYPQPLLDLVVNAGLHAAG”, the protein production was “not failed”.

For “MRVSMTLFRSKENHRMLNNFAKLNGGDDVRMGADVPADALVDRLLVGFFYGPSDRLPEVLHVSNQLVRTKESYPFLPFCASQSHIWKPGDPLRHLEPFTLNPWCIIPYVNPRSQDFPFPELNEIKSQQLYFDHLLGIKKLPTMTLDVPKSHHFQPKLSRLKTHHNFPYLADFVIKVPTTIFSFIVAISLLL”, the protein production was “failed”.

For “MGMLTDVALKALKPKEKIYKIADRDGIYVRVMPSGAISFRLDYRLNGRRETIYLGRYGRDGISLALAREKCLDAKRAIGEGRSPAIEKQRDKRRLKEAKSFGEFGEKWLTAAPMADSTRAMRRAIFERELLPVWRNRLLTEITPDDLRTHCGAIVERGAPATAIHVRDILKQIYGFAILHGEKVANPADEVGPASIATFVPKDRSLSPSEIRVMLKQLEHVATIPTIRLGMRLYLLTMVRKSELQDAVWDEVDFENAVWTIPKERMKRSKAHNVYLSRQALDIMIALKTCAGNSRYLLPSRYDADAPMSRATFNRITYAVVERAKANGLPLEPFTVHDLRRTGSTLLNELGFNSDWIEKCLAHEDGRSSRGVYNKAEYEVQRRHMMQEWSDIVDAWVGGKKHVPTLIPPSMPILAPDPAL”, the protein production was “failed”.

In the case of “MNNNDLFQASRRRFLAQLGGLTVAGMLGPSLLTPRRATAAQAATDAVISKEGILTGSHWGAIRATVKDGRFVAAKPFELDKYPSKMIAGLPDHVHNAARIRYPMVRVDWLRKRHLSDTSQRGDNRFVRVSWDEALDMFYEELERVQKTHGPSALLTASGWQSTGMFHNASGMLAKAIALHGNSVGTGGDYSTGAAQVILPRVVGSMEVYEQQTSWPLVLQNSKTIVLWGSDLLKNQQANWWCPDHDVYEYYAQLKAKVAAGEIEVISIDPVVTSTHEYLGREHVKHIAVNPQTDVPLQLALAHTLYSENLYDKNFLANYCVGFEQFLPYLLGEKDGQPKDAAWAEKLTGIDAETIRGLARQMAANRTQIIAGWCVQRMQHGEQWAWMIVVLAAMLGQIGLPGGGFGFGWHYNGAGTPGRKGVILSGFSGSTSIPPVHDNSDYKGYSSTIPIARFIDAILEPGKVINWNGKSVKLPPLKMCIFAGTNPFHRHQQINRIIEGLRKLETVIAIDNQWTSTCRFADIVLPATTQFERNDLDQYGNHSNRGIIAMKQVVPPQFEARNDFDIFRELCRRFNREEAFTEGLDEMGWLKRIWQEGVQQGKGRGVHLPAFDDFWNNKEYVEFDHPQMFVRHQAFREDPDLEPLGTPSGLIEIYSKTIADMNYDDCQGHPMWFEKIERSHGGPGSQKYPLHLQSVHPDFRLHSQLCESETLRQQYTVAGKEPVFINPQDASARGIRNGDVVRVFNARGQVLAGAVVSDRYAPGVARIHEGAWYDPDKGGEPGALCKYGNPNVLTIDIGTSQLAQATSAHTTLVEIEKYNGTVEQVTAFNGPVEMVAQCEYVPASQVKS”, the protein production was “failed”.

For “MDTSLPSAILNNMVTATLILDDGLAIRYANPAAELLFSQSAKRIVEQSLSQLIQHASLDLALLTQPLQSGQSITDSDVTFVVDGRPLMLEVTVSPITWQRQLMLLVEMRKID”, the protein production was “not failed”.

For “RFHNDGEALLAAFLAGDLAGIGAMTPEPAALEPARRLRRFYVRPDMRRRGVATALASALIHEGFDSVRLLTVNARAADAAAPFWEAQGFEPDTIGPWTH”, the protein production was “failed”.

For “SAAKALKDLKNLPVSERNIDYKTKLLVGKMNGTAEDKPPQNSVPFDHNHPKGDEIEKPEAERVIVEIEYIESKDLNNVTQVDAVLKSLVTELDSKDWVLVCDALNTIRRLSIFHKEEMLHMLEKVILFIVKSLKNPRSAVSKTACMTSADIFSSYNDHTIDQLDLLLTQLLLKSSQDKRFVCEAAEKALVAMTAHVSPALLLPKLQPFLKNRNPRIRAKASTCFSRCVPRLGIEGIREYGIEKLVQAASSQLSDQLPESREAARAVLLELQTVYKKTTNVEPKEEHPEPVTWQIFCQSNLSPLSAQAVIRVTNVAGVAREGLVAGS”, the protein production was “failed”.

In the case of “MTMSLIAGVAAFVLTVLAMPHFITYYKIKKIGGQQMHEDVKQHLAKAGTPTMGGTVFLVVAILISLIFNFHVFTEGHPAYGATAGILFVILIYGIIGFLDDFLKIFHQINEGLKPWQKMALQIVAGLLFYFIHVLPSGTNSLAIGGLTIQLGVFYVLFVLFWIVGFSNAVNLTDGIDGLASVSVVISLIAYGIIAFVKGELAILTIIITMIGALLGFFVFNHKPAKVFMGDVGSLSLGAMLAVISIALRVEWTLLLIGVVYVLETASVMLQVSYFKYTKRKYGEGRRIFRMTPFHHHLELGGISGKGEKWSEWKVDAFLWTIGALASSITLWMVLGNVMK”, the protein production was “failed”.

With “MDKQTSPQEEIPELAVAVPQDAAALARALDLEAQTVSTWLTQGLGIVARVGSQIVGLAHLVDDGGHADVTDLALTTPDDADVVAALIGGAEQIATELESRVLVVSGLKASPGPAYHYNSGWVRVLPTRVVVPTAEAMHAFGAALAAQLRAGDIVLASGDLGAGKTTLAQGIGRGLGVDGPVISPTFVLARRHVGSEGRPGLVHVDAYRLGSAAELIDLDLDETMDQAVTLIEWGAGIAEDLGGSHLDVDIRRSGDPADETRVVYLEGFGPRWQDVDLSLLSELPLDTISPDQTGDNN” the protein production was “failed”.
